In US20140348865A1, “[…] ON AN HIV-1 V1V2 SITE-OF-VULNERABILITY” (The United States of America, as represented by the …, priority 2011, published 2014):
pKd: −log10 of the molar value. Where “and” joins values, the source holds several entries; their conditions need not be identical. Identical values can stand only once.

Key:
monomeric gp120 = test: FIG. 11; method not given
1FD6-ZM109 V1V2 scaffold [1] = molecular target: 1FD6-ZM109 V1V2 scaffold
[2] = molecular target: linked dimer of the gp120 V1/V2 domain with truncated V1 and V2 variable loops
Linked-Dimer ZM109 = test: SPR
Linked-Dimer Cap45 = test: SPR, sensorgram box labelled PG9 Fab
1FD6-ZM109 V1V2 scaffold [3] = test: SPR, scaffold immobilized, PG9 Fab injected
1JO8-ZM109 V1V2 scaffold [4] = test: SPR, scaffold immobilized, PG9 Fab injected
[5] = molecular target: V3 loop-deleted gp120 of HIV-1 strain 16055 (HIV-1); test: SPR, gp120 amine-coupled, Fab injected
[6] = molecular target: V3 loop-deleted gp120 of HIV-1 strain AD244 (HIV-1); test: SPR, gp120 amine-coupled, Fab injected
[7] = molecular target: gp120 of HIV-1 strain 16055, full length (HIV-1); test: SPR, gp120 amine-coupled, Fab injected
[8] = molecular target: gp120 of HIV-1 strain AD244, full length (HIV-1); test: SPR, gp120 amine-coupled, Fab injected
Linked-Dimer A244 = test: SPR, sensorgram box labelled Flowcell 2: PG9 Fab
1JO8-ZM109 V1V2 scaffold [9] = test: SPR, antigen amine-coupled, Fab injected, 1:1 Langmuir
[10] = molecular target: gp120 of HIV-1 strain ZM109 (HIV-1); test: as above
[11] = molecular target: CAP45 154-177 glycopeptide with Man5GlcNAc2 at N160 and a complex glycan at N156; test: SPR, Fab injected over biotinylated glycopeptide on a streptavidin chip
[12] = molecular target: CAP45 154-177 glycopeptide with Man5GlcNAc2 at N160 only; test: as above
[13] = molecular target: Cap45 154-177 glycopeptide with Man5GlcNAc2 at N156 and Man5GlcNAc2 at N160; test: as above
[14] = molecular target: ZM109 154-177 glycopeptide with Man5GlcNAc2 at N160 and Man5GlcNAc2 at N173; test: as above
[15] = molecular target: ZM109 154-177 glycopeptide with Man5GlcNAc2 at N160 and a complex glycan at N173; test: as above
[16] = molecular target: ZM109 154-177 glycopeptide with Man5GlcNAc2 at N160 only; test: as above
[17] = molecular target: V3 loop-deleted gp120 of HIV-1 strain 16055 (HIV-1); test: SPR, heterogeneous ligand model, component 1, 46.9%
[18] = molecular target: gp120 of HIV-1 strain 16055, full length (HIV-1); test: SPR, heterogeneous ligand model, component 1, 66.0%
[19] = molecular target: V3 loop-deleted gp120 of HIV-1 strain AD244 (HIV-1); test: SPR, heterogeneous ligand model, component 1, 84.5%
[20] = molecular target: V3 loop-deleted gp120 of HIV-1 strain AD244 (HIV-1); test: SPR, heterogeneous ligand model, component 2, 15.5%
[21] = molecular target: gp120 of HIV-1 strain 16055, full length (HIV-1); test: SPR, heterogeneous ligand model, component 2, 34.0%
[22] = molecular target: V3 loop-deleted gp120 of HIV-1 strain 16055 (HIV-1); test: SPR, heterogeneous ligand model, component 2, 53.1%

Substance: Hypersulfated PG9 Fab (co-expressed with TPST-1)
- fold increase of affinity by sulfation (monomeric gp120): 10 fold

Substance: PG9 Fab
- pKd (1FD6-ZM109 V1V2 scaffold [1]): 5.40 and 5.25
- pKd [2]: 5.77
- pKd (Linked-Dimer ZM109): 5.79
- pKd (Linked-Dimer Cap45): 6.23
- fold lower affinity than for wild-type ZM109 gp120 (1FD6-ZM109 V1V2 scaffold [3]): 50 fold
- fold lower affinity than for wild-type ZM109 gp120 (1JO8-ZM109 V1V2 scaffold [4]): 3 fold
- pKd [5]: 7.15
- pKd [6]: 6.99
- pKd [7]: 7.31
- pKd [8]: 7.36
- pKd (Linked-Dimer A244): 5.74
- pKd (1JO8-ZM109 V1V2 scaffold [9]): 6.50
- koff (1JO8-ZM109 V1V2 scaffold [9]): 0.00253 s⁻¹
- kon (1JO8-ZM109 V1V2 scaffold [9]): 7960 M⁻¹ s⁻¹
- pKd [10]: 7.01
- koff [10]: 0.00285 s⁻¹
- kon [10]: 29500 M⁻¹ s⁻¹
- pKd [11]: 5.24
- pKd [12]: 4.30
- pKd [13]: 4.35
- pKd [14]: 4.01
- pKd [15]: 5.30
- pKd [16]: 4.01

Substance: PG16 Fab
- pKd [8]: 5.31
- pKd [17]: 5.68
- pKd [18]: 6.43
- pKd [19]: 5.47
- pKd [20]: 7.37
- pKd [21]: 6.40
- pKd [22]: 5.21
- pKd [11]: 4.49
- pKd [15]: 4.70
